Residue numbers refer to the chain shown, from its start. Blank lines part the entries; values can stand above or below the binder they belong to.
How the values were obtained:
[1] = target: T1, mFz: Fz domain and C-terminal flanking sequence of mouse MuSK (D307 to T494) with C-terminal Avi- and … (mouse, UniProt Q61006 307-494, limits assumed, biotinylated in vitro using the BirA enzyme); experiment: bead-binding assay, Fab format: biotinylated antigen on streptavidin beads, flow cytometry, 1:1 fit; average ± s.d., n=3
T1 construct: also called mouse Fz; not shown: Avi- and His6-tags
T1 sequence (looked up): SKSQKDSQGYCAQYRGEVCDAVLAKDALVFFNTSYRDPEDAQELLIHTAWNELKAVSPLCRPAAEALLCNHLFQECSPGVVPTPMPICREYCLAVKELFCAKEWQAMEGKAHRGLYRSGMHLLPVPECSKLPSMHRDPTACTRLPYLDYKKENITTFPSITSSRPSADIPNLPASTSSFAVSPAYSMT

[2] = target: T2, hFz: Fz domain and C-terminal flanking sequence of human MuSK (K314-T495) with C-terminal Avi- and His6-tags (human, UniProt O15146 314-495, biotinylated in vitro using the BirA enzyme); experiment: as above
T2 construct: also called human Fz; not shown: Avi- and His6-tags
T2 sequence: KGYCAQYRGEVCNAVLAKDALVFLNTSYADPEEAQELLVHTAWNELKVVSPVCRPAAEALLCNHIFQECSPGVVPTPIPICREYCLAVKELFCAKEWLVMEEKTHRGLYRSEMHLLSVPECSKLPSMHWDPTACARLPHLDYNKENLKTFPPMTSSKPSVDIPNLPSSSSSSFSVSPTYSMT

[3] = target: T3, mECD: full-length extracellular region of mouse MuSK (E22 to T494) with C-terminal Avi- and His6-tags (mouse, UniProt Q61006 22-494, biotinylated in vitro using the BirA enzyme); experiment: as above
T3 construct: range 22-494; also called mouse ECD; not shown: Avi- and His6-tags
T3 sequence (looked up): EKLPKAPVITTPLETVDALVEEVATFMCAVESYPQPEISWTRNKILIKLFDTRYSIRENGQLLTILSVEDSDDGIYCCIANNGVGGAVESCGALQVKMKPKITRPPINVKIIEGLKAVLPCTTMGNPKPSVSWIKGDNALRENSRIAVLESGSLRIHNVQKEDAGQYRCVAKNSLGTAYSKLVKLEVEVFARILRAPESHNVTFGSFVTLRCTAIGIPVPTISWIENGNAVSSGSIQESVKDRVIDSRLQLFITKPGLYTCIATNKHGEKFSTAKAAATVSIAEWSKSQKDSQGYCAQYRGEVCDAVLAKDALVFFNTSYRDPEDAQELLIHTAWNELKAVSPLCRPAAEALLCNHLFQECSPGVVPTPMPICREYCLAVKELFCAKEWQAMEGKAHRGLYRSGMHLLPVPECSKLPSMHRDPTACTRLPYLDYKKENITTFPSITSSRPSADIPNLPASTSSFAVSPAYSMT

[4] = target: T4, hECD: full-length extracellular region of human MuSK (E22 to T495) with C-terminal Avi- and His6-tags (human, UniProt O15146 22-495, biotinylated in vitro using the BirA enzyme); experiment: as above
T4 construct: also called human ECD; not shown: Avi- and His6-tags
T4 sequence: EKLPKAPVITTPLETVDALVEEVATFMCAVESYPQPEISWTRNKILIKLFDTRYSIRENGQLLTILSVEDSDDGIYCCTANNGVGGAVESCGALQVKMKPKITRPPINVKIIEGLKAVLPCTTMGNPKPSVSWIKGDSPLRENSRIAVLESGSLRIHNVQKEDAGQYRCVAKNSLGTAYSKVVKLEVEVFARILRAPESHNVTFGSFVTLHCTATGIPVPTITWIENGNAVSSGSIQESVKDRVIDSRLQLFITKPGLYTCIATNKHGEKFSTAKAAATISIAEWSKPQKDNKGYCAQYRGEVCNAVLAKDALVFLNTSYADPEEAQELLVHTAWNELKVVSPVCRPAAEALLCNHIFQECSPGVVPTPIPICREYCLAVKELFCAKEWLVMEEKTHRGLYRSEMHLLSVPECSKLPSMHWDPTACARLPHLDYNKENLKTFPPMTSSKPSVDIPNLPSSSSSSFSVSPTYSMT

cynomolgus monkey MuSK [5] = target: T5, cynomolgus monkey MuSK (cynomolgus monkey, UniProt A0A2K5USF6 24-487); experiment: Biacore, MuSK on chip, association pH 7.4, dissociation pH 5.5
Description: (§1) For affinity determination, a CMS chip was coated with cynomolgus monkey, rat and mouse MuSK (200RU) and 66.7 nM of antibody was applied and kinetic parameters calculated (Table 8). The following conclusions could be drawn: (1) 3B2g1m3 and 3B2g2m3 (m3 variants) show significant drop in affinity for MuSK for all species tested; (2) 3B2g1m2 and 3B2g2m2 (m2 variants) show some drop in affinity for MuSK; (3) 3B2g1m1, 3B2g2m1, 3B2g1m4, 3B2g2m4 (ml and m4 variants) show no drop in affinity for MuSK for all species tested; and (4) for all clones there is no difference between g1 and g2 variants (VL methionine versus serine in CDR3).
(§2) In order to study pH dependent binding of our antibodies to MuSK, the same Biacore was used as above, but now dissociation was done at pH 5.5 instead of pH 7.4. […] The following conclusions could be drawn for the different variants: (1) 3B2g1m3 and 3B2g2m3 (m3 variants) show significant drop in affinity for MuSK for all species tested; (2) 3B2g1m2 and 3B2g2m2 (m2 variants) show some drop in affinity for MuSK; (3) 3B2g1m1, 3B2g2m1, 3B2g1m4, 3B2g2m4 (m1 and m4 variants) show no drop in affinity for MuSK for all species tested; and (4) for all clones there is no difference between g1 and g2 variants (VL methionine versus serine in CDR3).

mouse MuSK [6] = target: T6, mouse MuSK (mouse, UniProt Q61006 22-494, limits assumed); experiment: as above
T6 construct: Coated on ELISA plates or on the Biacore chip; also called full length mouse MuSK; mouse MuSK (in house produced in HEK293 cells)
T6 sequence (looked up): T3 sequence (looked up)
Description: as §1, §2

rat MuSK [7] = target: T7, rat MuSK (rat, UniProt Q62838 22-494, limits assumed); experiment: as above
T7 construct: Coated on Biacore chip (200RU) or ELISA plate
T7 sequence (looked up): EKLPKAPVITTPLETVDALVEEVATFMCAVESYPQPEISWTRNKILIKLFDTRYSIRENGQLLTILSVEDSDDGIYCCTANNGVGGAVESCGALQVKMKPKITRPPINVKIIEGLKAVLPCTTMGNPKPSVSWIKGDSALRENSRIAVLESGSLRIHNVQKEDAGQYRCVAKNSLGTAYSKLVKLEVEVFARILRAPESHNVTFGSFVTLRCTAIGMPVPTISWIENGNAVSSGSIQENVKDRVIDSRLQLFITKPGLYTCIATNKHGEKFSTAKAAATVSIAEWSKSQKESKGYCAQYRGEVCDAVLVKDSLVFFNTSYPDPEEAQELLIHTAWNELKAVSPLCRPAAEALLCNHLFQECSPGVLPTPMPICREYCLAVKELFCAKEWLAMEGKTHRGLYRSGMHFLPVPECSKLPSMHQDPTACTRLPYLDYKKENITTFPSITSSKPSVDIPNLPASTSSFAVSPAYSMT
Description: as §1, §2

cynomolgus monkey MuSK [8] = target: T5, cynomolgus monkey MuSK; experiment: Biacore, MuSK on chip (200RU), 66.7 nM mAb, dissociation pH 7.4
Description: as §1

mouse MuSK [9] = target: T6, mouse MuSK; experiment: as above
Description: as §1

rat MuSK [10] = target: T7, rat MuSK; experiment: as above
Description: as §1

T5 sequence (A0A2K5USF6 entry or part of it): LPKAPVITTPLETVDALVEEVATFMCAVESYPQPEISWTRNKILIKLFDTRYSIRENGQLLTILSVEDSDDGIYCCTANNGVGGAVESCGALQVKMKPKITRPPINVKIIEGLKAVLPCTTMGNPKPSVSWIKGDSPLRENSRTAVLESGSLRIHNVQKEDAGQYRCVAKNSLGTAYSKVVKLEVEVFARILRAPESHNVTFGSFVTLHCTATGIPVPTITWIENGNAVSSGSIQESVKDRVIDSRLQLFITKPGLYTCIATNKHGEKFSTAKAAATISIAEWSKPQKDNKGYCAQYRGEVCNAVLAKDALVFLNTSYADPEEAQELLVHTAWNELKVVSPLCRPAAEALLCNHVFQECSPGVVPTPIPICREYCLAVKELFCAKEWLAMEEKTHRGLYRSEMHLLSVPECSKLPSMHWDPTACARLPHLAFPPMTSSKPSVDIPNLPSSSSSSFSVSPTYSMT

Kd [1]: 4.7 nM | Kd [2]: 1.4 nM | Kd [3]: 44 nM | Kd [4]: 1.69 nM
B1: X8 Fab (Fab, V domains shown)
VH: EVQLVESGGGLVQPGGSLRLSCAASGFTVSSSSIHWVRQAPGKGLEWVASISSSSGSTSYADSVKGRFTISADTSKNTAYLQMNSLRAEDTAVYYCARSWSYHPWYYHVGWYTGLDYWGQGTLVTVSS
VL: DIQMTQSPSSLSASVGDRVTITCRASQSVSSAVAWYQQKPGKAPKLLIYSASSLYSGVPSRFSGSRSGTDFTLTISSLQPEDFATYYCQQSSSSLITFGQGTKVEIK
notes: also called Fab Clone X8

Kd [1]: 12 nM | Kd [2]: 4.5 nM | Kd [3]: 16.2 nM | Kd [4]: 6 nM
B2: X7 Fab (Fab, V domains shown)
VH: EVQLVESGGGLVQPGGSLRLSCAASGFTLYSSSIHWVRQAPGKGLEWVASISSSYSSTYYADSVKGRFTISADTSKNTAYLQMNSLRAEDTAVYYCARLAGLYHYPGYLGLDYWGQGTLVTVSS
VL: DIQMTQSPSSLSASVGDRVTITCRASQSVSSAVAWYQQKPGKAPKLLIYSASSLYSGVPSRFSGSRSGTDFTLTISSLQPEDFATYYCQQSSRSSLLTFGQGTKVEIK
notes: also called Fab Clone X7

R0 (cynomolgus monkey MuSK [5]): 151 RU | koff (cynomolgus monkey MuSK [5]): 0.00288 s⁻¹ | kon (cynomolgus monkey MuSK [5]): 850000 M⁻¹ s⁻¹ | R0 (mouse MuSK [6]): 193 RU | koff (mouse MuSK [6]): 0.00339 s⁻¹ | kon (mouse MuSK [6]): 1.18e+06 M⁻¹ s⁻¹ | R0 (rat MuSK [7]): 174 RU | koff (rat MuSK [7]): 0.00555 s⁻¹ | kon (rat MuSK [7]): 1.15e+06 M⁻¹ s⁻¹ | R0 (cynomolgus monkey MuSK [8]): 144 RU | koff (cynomolgus monkey MuSK [8]): 0.00109 s⁻¹ | kon (cynomolgus monkey MuSK [8]): 890000 M⁻¹ s⁻¹ | R0 (mouse MuSK [9]): 195 RU | koff (mouse MuSK [9]): 0.00104 s⁻¹ | kon (mouse MuSK [9]): 1.32e+06 M⁻¹ s⁻¹ | R0 (rat MuSK [10]): 160 RU | koff (rat MuSK [10]): 0.00193 s⁻¹ | kon (rat MuSK [10]): 1.4e+06 M⁻¹ s⁻¹
B3: 3B2g2m1 (antibody, human IgG1, V domains shown)
VH: EVQLLESGGGLVQPGGSLRLSCAASGFTFSDYGMSWVRQAPGKGLEWVSAIPWSGGSTYYKESVKGRFTISRDNSKNTLYLQMNSLRAEDTAVYYCAKRSGRIAFGALDAWGQGTLVTVSS
VL: QTVVTQEPSFSVSPGGTVTLTCGLSSGSVTSSNYPDWYQQTPGQAPRTLIYSTDSRHSGVPDRFSGSILGNKAALTITGAQADDESDYYCGLYSYSGSKNYVFGGGTKLTVL
notes: human IgG1-LALA backbone; produced in HEK293 cells; also called MuSK agonist antibody 3B2g2m1; MuSK-mAb 3B2g2m1

R0 (cynomolgus monkey MuSK [5]): 147 RU | koff (cynomolgus monkey MuSK [5]): 0.0029 s⁻¹ | kon (cynomolgus monkey MuSK [5]): 810000 M⁻¹ s⁻¹ | R0 (mouse MuSK [6]): 192 RU | koff (mouse MuSK [6]): 0.00339 s⁻¹ | kon (mouse MuSK [6]): 1.19e+06 M⁻¹ s⁻¹ | R0 (rat MuSK [7]): 166 RU | koff (rat MuSK [7]): 0.00595 s⁻¹ | kon (rat MuSK [7]): 1.16e+06 M⁻¹ s⁻¹ | R0 (cynomolgus monkey MuSK [8]): 143 RU | koff (cynomolgus monkey MuSK [8]): 0.00117 s⁻¹ | kon (cynomolgus monkey MuSK [8]): 840000 M⁻¹ s⁻¹ | R0 (mouse MuSK [9]): 193 RU | koff (mouse MuSK [9]): 0.0011 s⁻¹ | kon (mouse MuSK [9]): 1.25e+06 M⁻¹ s⁻¹ | R0 (rat MuSK [10]): 157 RU | koff (rat MuSK [10]): 0.00192 s⁻¹ | kon (rat MuSK [10]): 1.32e+06 M⁻¹ s⁻¹
B4: 3B2g1m1 (antibody, human IgG1, V domains shown)
VH: B3 VH
VL: B3 VL with S94M
notes: human IgG1-LALA backbone; produced in HEK293 cells

Source: patent US20230151091A1 (NEW YORK UNIVERSITY, published 2023)
